Patent US20200123221A1 (published 2020)

Assays:
[1] = target: T1, PRAME (PRAME-004) peptide on HLA-A*02:01 (human); assay: IFN-gamma release; RNA-electroporated CD8+ T cells; T2 cells loaded with 10 µM to 10 pM peptide (FIG. 18); full-length, on cells
T1 peptide: SLLQHLIGL

[2] = target: T1, PRAME (PRAME-004) peptide on HLA-A*02:01; assay: IFN-gamma release; RNA-electroporated CD8+ T cells; T2 cells loaded with 10 µM to 10 pM peptide (FIG. 17); full-length, on cells
[3] = target: T1, PRAME (PRAME-004) peptide on HLA-A*02:01; assay: multimer staining

B1: R17P1D7 (TCR, V domains shown)
Valpha: AQTVTQSQPEMSVQEAETVTLSCTYDTSESDYYLFWYKQPPSRQMILVIRQEAYKQQNATENRFSVNFQKAAKSFSLKISDSQLGDAAMYFCAYRWAQGGSEKLVFGKGTKLTVNP
Vbeta: EADIYQTPRYLVIGTGKKITLECSQTMGHDKMYWYQQDPGMELHLIHYSYGVNSTEKGDLSSESTVSRIRTEHFPLTLESARPSHTSQYLCATELWSSGGTGELFFGEGSRLTVL
- EC50 of peptide [1]: 1.83 nM

B2: R16P1E8 (TCR, V domains shown)
Valpha: QKEVEQDPGPLSVPEGAIVSLNCTYSNSAFQYFMWYRQYSRKGPELLMYTYSSGNKEDGRFTAQVDKSSKYISLFIRDSQPSDSATYLCAMSEAAGNKLTFGGGTRVLVKP
Vbeta: EAGVAQSPRYKIIEKRQSVAFWCNPISGHATLYWYQQILGQGPKLLIQFQNNGVVDDSQLPKDRFSAERLKGVDSTLKIQPAKLEDSAVYLCASSYTNQGEAFFGQGTRLTVV
- EC50 of peptide [2]: ~1000 nM

B3: R17P1A9 (TCR, V domains shown)
Valpha: QKEVEQNSGPLSVPEGAIASLNCTYSDRGSQSFFWYRQYSGKSPELIMSIYSNGDKEDGRFTAQLNKASQYVSLLIRDSQPSDSATYLCAVLNQAGTALIFGKGTTLSVSS
Vbeta: DSGVTQTPKHLITATGQRVTLRCSPRSGDLSVYWYQQSLDQGLQFLIQYYNGEERAKGNILERFSAQQFPDLHSELNLSSLELGDSALYFCASSAETGPWLGNEQFFGPGTRLTVL
- binding result [3]: recognises
